In patent publication US20170360911A1:

Tests used:
HLA-A*02:01 (human) = assay: T2-A24 MHC class I stabilization, flow cytometry, anti-HLA-A02 BB7.2-FITC, peptide 100 ug/mL; settings: remark: other sources report otherwise

Binder	MFI (solvent ratio) (ratio to solvent) (HLA-A*02:01 (human))	MFI (solvent ratio) (ratio to solvent) (HLA-A*24:02 (human))
EADPTGHSY [MAGE-1161-169 peptide]	1	–
RGYVYQGL (modifications not checked) [VSV52-59 peptide]	–	1
